The target in assay [1] is human EPCR on CHO745-EPCR cells (human) (UniProt Q9UNN8). Description: flow cytometry on cells; competition: CHO745-EPCR cells coincubated for 30 min with 50 μg/ml (660 nM) or 250 μg/ml (3.3 µM) CIDR domains and 25 μg/ml (446 nM) APC; APC detected by anti-human protein C antibody. For orientation: A flow cytometer gives signals particle by particle.
For assay [2], the target named is recombinant human CD36 (human) (UniProt P16671). As to the kind of experiment: BLI; Octet Qke; hisCD36 immobilised on Ni-NTA biosensors, CIDR domains in solution; kinetics buffer (PBS, 0.02% Tween-20, 100 μg/ml bovine serum albumin, 0.005% sodium azide); association 600 or 900 s, dissociation 300 to 600 s; 1:1 fit. For orientation: BLI is a label-free optical method that tracks binding on a fibre tip over time.
Chain of recombinant human CD36 (human) (P16671 whole entry, the tested form may be a part): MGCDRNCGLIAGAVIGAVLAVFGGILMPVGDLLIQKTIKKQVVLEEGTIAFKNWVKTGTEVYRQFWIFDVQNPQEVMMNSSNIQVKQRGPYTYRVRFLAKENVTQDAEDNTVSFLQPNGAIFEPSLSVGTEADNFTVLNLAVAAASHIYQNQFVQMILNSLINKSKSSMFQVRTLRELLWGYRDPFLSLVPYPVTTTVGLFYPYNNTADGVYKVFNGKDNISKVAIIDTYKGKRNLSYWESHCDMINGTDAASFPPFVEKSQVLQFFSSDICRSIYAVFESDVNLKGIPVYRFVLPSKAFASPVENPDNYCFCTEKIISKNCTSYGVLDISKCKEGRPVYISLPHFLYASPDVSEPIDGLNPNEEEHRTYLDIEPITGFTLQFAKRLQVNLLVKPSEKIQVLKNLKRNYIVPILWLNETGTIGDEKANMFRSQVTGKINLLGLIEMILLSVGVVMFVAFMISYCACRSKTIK

Assay [3] shares this target. Description: BLI; Octet Qke; hisCD36 immobilised on Ni-NTA biosensors, CIDR domain in kinetics buffer (PBS, 0.02% Tween-20, 100 ug/ml BSA, 0.005% sodium azide); association 600 or 900 s, dissociation 300 to 600 s; double-reference subtracted data fitted to a 1:1 binding model.
For assay [4], the target named is recombinant human endothelial protein C receptor (human) (UniProt Q9UNN8). As to the kind of experiment: BLI; Octet Qke; EPCR on the biosensor, CIDR domain in solution; protocol as reported previously (ref. 40); double-reference subtracted data fitted to a 1:1 binding model.
Chain of recombinant human endothelial protein C receptor (human) (Q9UNN8 18-238): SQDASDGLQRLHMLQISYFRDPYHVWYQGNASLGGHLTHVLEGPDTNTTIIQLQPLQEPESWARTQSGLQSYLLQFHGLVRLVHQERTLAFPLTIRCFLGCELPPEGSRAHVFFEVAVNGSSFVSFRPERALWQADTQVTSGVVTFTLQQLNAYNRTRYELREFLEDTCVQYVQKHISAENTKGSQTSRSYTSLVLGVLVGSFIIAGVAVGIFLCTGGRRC

Chain of human EPCR on CHO745-EPCR cells (human) (Q9UNN8 18-238): as above

For the substance “P. falciparum var07 CIDRα1.4 (domain or fragment)”, in assay [1], the percent reduction of APC binding at 50 μg/ml CIDR stood at 85% and the percent reduction of APC binding at 250 μg/ml CIDR was found to be 98%.
The term Kd denotes a measure of binding affinity in units of concentration. In general, koff refers to the first-order rate constant of dissociation. As a reminder, the kon is a measure of how fast the partners come together. Consider “P. falciparum var14 CIDRα5 (domain or fragment)”, for which the dissociation constant (Kd) in assay [2] is 3.2 nM. In addition, in assay [3], the dissociation rate constant (koff) stood at 2.99e-05 s⁻¹ and the kon is 9280 M⁻¹ s⁻¹.
On to “P. reichenowi var71 CIDRα1.4 (domain or fragment)”, for which, in assay [4], the koff worked out at 0.000268 s⁻¹ and the on-rate (kon) was 11800 M⁻¹ s⁻¹.

Values taken from article PMC5227068.
